Test results published in PMC9428257 (2022).

B1: yeast-displayed wild-type sBCMA (human BCMA extracellular domain, Met1-Ala54) [human] / human APRIL (a proliferation-inducing ligand) [human] (parent complex)
chain 1: MLQMAGQCSQNEYFDSLLHACIPCQLRCSSNTPPLTCQRYCNASVTNSVKGTNA
chain 2: AVLTQKQKKQHSVLHLVPINATSKDDSDVTEVMWQPALRRGRGLQAQGYGVRIQDAGVYLLYSQVLFQDVTFTMGQVVSREGQGRQETLFRCIRSMPSHPDRAYNSCYSAGVFHLHQGDILSVIIPRARAKLNLSPHGTFLGFVKL

Variants of: B1
Assay: flow cytometry binding curve of yeast-displayed sBCMA

screen value | Variant
325 | chain 1 MLQMAGQCSQNEYFDGLLYACIPCQLRCSSNTPPLACQRYCNASVTNSVKGTNA [chain 1 S16G, chain 1 H19Y, chain 1 T36A]
